Data set [1] concerns the target Full length activated FXIIa (α‐FXIIa) (UniProt P00748).
Target sequence in this assay (P00748 20-615): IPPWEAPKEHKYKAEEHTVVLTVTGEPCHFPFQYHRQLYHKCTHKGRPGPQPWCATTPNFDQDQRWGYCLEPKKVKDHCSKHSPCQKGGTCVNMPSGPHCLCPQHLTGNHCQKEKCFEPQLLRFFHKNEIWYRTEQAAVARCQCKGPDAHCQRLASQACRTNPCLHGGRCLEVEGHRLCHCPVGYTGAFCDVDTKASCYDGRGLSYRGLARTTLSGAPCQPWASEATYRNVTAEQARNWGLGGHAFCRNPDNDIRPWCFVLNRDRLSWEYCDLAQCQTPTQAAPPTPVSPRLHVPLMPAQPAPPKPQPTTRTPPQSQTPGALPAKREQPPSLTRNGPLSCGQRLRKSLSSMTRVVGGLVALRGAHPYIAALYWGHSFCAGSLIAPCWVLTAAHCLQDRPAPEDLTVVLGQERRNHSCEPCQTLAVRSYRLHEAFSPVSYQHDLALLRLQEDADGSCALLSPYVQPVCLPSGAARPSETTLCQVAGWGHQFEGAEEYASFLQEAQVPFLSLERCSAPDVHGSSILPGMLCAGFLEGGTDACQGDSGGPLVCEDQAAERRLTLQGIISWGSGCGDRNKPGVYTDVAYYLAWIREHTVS
Data set [2] has the same target. This is another data set of the same source.
Data set [3] addresses T1, α‐FXIIa (Homo sapiens, UniProt P00748).
T1 construct: purchased Enzyme Research Laboratories (Swansea, UK)
T1 sequence (P00748 373-615 limits assumed): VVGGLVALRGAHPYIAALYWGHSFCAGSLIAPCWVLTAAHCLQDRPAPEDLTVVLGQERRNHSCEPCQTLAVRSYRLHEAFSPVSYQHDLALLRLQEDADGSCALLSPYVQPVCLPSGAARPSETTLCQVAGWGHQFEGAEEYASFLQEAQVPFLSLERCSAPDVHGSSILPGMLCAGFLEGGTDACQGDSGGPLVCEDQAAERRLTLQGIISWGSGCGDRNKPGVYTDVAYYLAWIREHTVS
T1 sequence (P00748 20-372 partner limits assumed): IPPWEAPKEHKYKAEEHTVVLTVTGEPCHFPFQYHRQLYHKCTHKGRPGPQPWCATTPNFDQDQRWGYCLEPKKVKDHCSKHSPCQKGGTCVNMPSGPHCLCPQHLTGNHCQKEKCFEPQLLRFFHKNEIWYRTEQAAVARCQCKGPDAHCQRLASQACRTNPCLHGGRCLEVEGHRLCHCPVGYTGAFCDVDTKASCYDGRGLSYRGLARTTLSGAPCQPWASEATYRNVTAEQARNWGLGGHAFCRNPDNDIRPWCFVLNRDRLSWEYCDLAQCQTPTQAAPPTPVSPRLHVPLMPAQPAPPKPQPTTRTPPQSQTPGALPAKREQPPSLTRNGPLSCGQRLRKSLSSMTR
The experiment in a line: α‐FXIIa enzymatic assay (S‐2302 chromogenic substrate cleavage, pNA release). Conditions: CTI variant proteins 10^−8 M to 10^−5 M, 200 μM S‐2302, 10 nM α‐FXIIa, 33 °C, initial rate of first 30 min, A405; SE of the fit, n = 3–5 independent experiments; SEM. Type of data set: biochemical. Here is the method:
(§1) The enzymatic activity of α‐FXIIa was measured by monitoring the amount of pNA chromophore released from substrate H‐D‐Pro‐Phe‐Arg‐pNA (S‐2302). Assays were performed in a 100‐μL volume at 33 °C in 96‐well plates in a Perkin Elmer (Seer Green, UK) Envision plate reader, and pNA release was followed over a period of 6 h by reading the absorbance at 405 nm. Absorbance values were converted to pNA concentrations by comparison with a standard curve obtained under exactly the same instrument conditions. All absorbance values were within the linear measurement range of the instrument. Initial rates were calculated on the basis of the first 30 min of incubation. To assess the K M, concentrations of substrate peptide between 0.1 mM and 0.6 mM were incubated with 10 nM α‐FXIIa, enzymatic activity was measured as described above, and data were analyzed by non‐linear regression with the Michaelis–Menten algorithm (GRAPHPAD PRISM, version 6.04). To assess the inhibitory mechanism of CTI, 30 nM CTI was incubated with these same concentrations of substrate peptide, the reaction was initiated by the addition of 10 nM α‐FXIIa, enzymatic activity was measured as described above, and data were analyzed by non‐linear regression with the Michaelis–Menten algorithm (GRAPHPAD PRISM, version 6.04) and by linear regression after Lineweaver–Burk transformation. To assay inhibitors, concentrations of CTI variant proteins between 10^−8 M and 10^−5 M or concentrations of peptides between 10^−6 M and 10^−3 M were incubated with 200 μM substrate peptide, the reaction was initiated by addition of 10 nM α‐FXIIa, enzymatic activity was measured as described above, and IC50 values were determined by non‐linear regression analysis (GRAPHPAD PRISM, version 6.04) using the log[inhibitor] versus response – variable slope algorithm with a bottom constraint.

Data set [4] concerns the target T1, α‐FXIIa. The experiment in a line: Kinetic analysis of the CTI inhibitory mechanism (Michaelis–Menten / Lineweaver–Burk, S‐2302). It counts as biochemical. To be noted: 0.1 to 0.6 mM substrate peptide, 10 nM α‐FXIIa. On the procedure: as §1
Figure S3: analysis of CTI inhibitory mechanism
0.1 to 0.6 mM of substrate peptide was incubated without (open symbols) or with 30 nM CTI (closed symbols), after which 10 nM α -FXIIa (equalling to 1 pmol of enzyme) was added and enzyme activity was measured as described in the method section. Data were analysed by non-linear regression (top left panel) and linear regression after Lineweaver Burk […]

The next data set deals with thrombin. Conditions: previous reports; cited from earlier work.
A further data set deals with FVIIa. To be noted: cited from earlier work.
A further data set relates to kallikrein. Conditions: cited from earlier work. An excerpt:
(§2) The canonical docking pose that we observed for FXIIa–CTI is similar to the trypsin–CTI and HGFA–CTI complexes predicted by CLUSPRO, albeit that there are fewer interactions overall for trypsin and HGFA, owing to Asp60A (H1 pocket) being absent in these proteases.

The subject of the next data set is FIXa. Conditions: cited from earlier work.
From the text: as §2

Data set [5] has as its target Full length activated FXIIa (α‐FXIIa) (UniProt P00748). This is another data set of the same source.
Another data set has as its system FXIa. To be noted: previous reports; cited from earlier work.

Changes are numbered by the printed parent chain. In names and notes the source's numbering stands. Where two headings read alike, the source gives them in different places.

By Ki is commonly meant a measure of affinity in units of concentration, obtained from inhibition or displacement. The low end stands for a stronger hold on the target, the high end for a looser hold on the target. Usually Km stands for the substrate concentration at which the rate is half of its maximum.

B1: CTI(23–43) synthetic peptide (peptide)
peptide: YVTSRTAGIGPRLPWPELKRR
In data set [1], B1 came in with an IC50 of inhibition of α‐FXIIa enzymatic activity (S‐2302 cleavage) of 1100 µM and a pIC50 of inhibition of α‐FXIIa enzymatic activity (S‐2302 cleavage) of 2.94.

B2: CTI(20–44) synthetic peptide (peptide)
peptide: CRWYVTSRTAGIGPRLPWPELKRRC
Take B2: in [1], the IC50 of inhibition of α‐FXIIa enzymatic activity (S‐2302 cleavage) came to 290 µM and the pIC50 of inhibition of α‐FXIIa enzymatic activity (S‐2302 cleavage) was determined as 3.54.

B3: commercial corn trypsin inhibitor (CTI) (natural protein)
chain: SAGTSCVPGWAIPHNPLPSCRWYVTSRTCGIGPRLPWPELKRRCCRELADIPAYCRCTALSILMDGAIPPGPDAQLEGRLEDLPGCPREVQRGFAATLVTEAECNLATIS
B3: in data set [2], the IC50 of inhibition of α‐FXIIa enzymatic activity (S‐2302 cleavage) amounted to 110 nM and the pIC50 of inhibition of α‐FXIIa enzymatic activity (S‐2302 cleavage) is 6.97. In addition, the “pIC50 ± SE” value with α‐FXIIa [3] amounted to 6.97 ± 0.04. Moreover, the Inhibitory mechanism result in the data set with α‐FXIIa [4] (30 nM CTI) is reported as “competitive inhibitory mechanism”. The molecule also returned a Ki with α‐FXIIa [4] (30 nM CTI, Fig. S3) of 29 ± 4 nM. Also, in the data set with α‐FXIIa [4] (in the presence of 30 nM CTI, Fig. S3), the kcat was found to be 15 ± 2. Also, the Km with α‐FXIIa [4] (in the presence of 30 nM CTI, Fig. S3, read-out: Km app) was 301 ± 72 µM. Also, in the data set with thrombin, the “Inhibition of thrombin, in words” value is listed as “does not inhibit”. In addition, in the data set on FVIIa, the “Inhibition of FVIIa, in words” value is on record as “does not inhibit”. The “Inhibition of kallikrein, in words” value in the data set with kallikrein is given as “does not inhibit”. Also, the “Inhibition of FIXa, in words” value with FIXa was “does not inhibit”. In data set [5], this molecule showed a pIC50 of inhibition of α‐FXIIa enzymatic activity (S‐2302 cleavage) of 6.95. The “Inhibition of FXIa, in words” value in the data set on FXIa is reported as “weakly inhibits”.

B4: CTI(21–43) synthetic peptide (peptide)
peptide: RWYVTSRTAGIGPRLPWPELKRR
B4: in data set [1], the IC50 of inhibition of α‐FXIIa enzymatic activity (S‐2302 cleavage) is 460 µM and the pIC50 of inhibition of α‐FXIIa enzymatic activity (S‐2302 cleavage) is 3.34.

B5: R27A/R42A: rec‐CTI double substitution R27A/R42A (protein)
chain: SAGTSCVPGWAIPHNPLPSCRWYVTSATCGIGPRLPWPELKARCCRELADIPAYCRCTALSILMDGAIPPGPDAQLEGRLEDLPGCPREVQRGFAATLVTEAECNLATISGVAECPWILGGGTMPSK
modifications: assayed as His6-GST fusion (tag omitted); disulfides
For B5, the “pIC50 ± SE” value with α‐FXIIa [3] is recorded as 6.80 ± 0.05.

B6: G32W: rec‐CTI variant, replacement of Gly32 with tryptophan (protein)
chain: B5 chain with A27R, G32W, A42R
modifications: assayed as His6-GST fusion (tag omitted); disulfides
For B6, in the data set with α‐FXIIa [3], the “pIC50 ± SE” value is reported as 4.89 ± 0.06.

B7: G30W: rec‐CTI variant, replacement of Gly30 with a tryptophan (protein)
chain: B5 chain with A27R, G30W, A42R
modifications: assayed as His6-GST fusion (tag omitted); disulfides
Turning to B7, the “pIC50 ± SE” value with α‐FXIIa [3] was found to be 6.32 ± 0.06.

B8: R27A: rec‐CTI variant, alanine substitution of Arg27 (protein)
chain: B5 chain with A42R
modifications: assayed as His6-GST fusion (tag omitted); disulfides
As to B8, the “pIC50 ± SE” value with α‐FXIIa [3] is given as 6.78 ± 0.04.

B9: W22A: rec‐CTI variant, alanine substitution of Trp22 (protein)
chain: B5 chain with W22A, A27R, A42R
modifications: assayed as His6-GST fusion (tag omitted); disulfides
Turning to B9, the “pIC50 ± SE” value with α‐FXIIa [3] was found to be 4.72 ± 0.24.

B10: CTI(21–42) synthetic peptide (peptide)
peptide: RWYVTSRTAGIGPRLPWPELKR
As to B10, in [1], the IC50 of inhibition of α‐FXIIa enzymatic activity (S‐2302 cleavage) turned out to be 200 µM and the pIC50 of inhibition of α‐FXIIa enzymatic activity (S‐2302 cleavage) worked out at 3.7.

The values are drawn from publication PMC5638086, “Assessment of the protein interaction between coagulation factor XII and corn trypsin inhibitor by molecular docking and biochemical validation” (Journal of Thrombosis and Haemostasis, 2017).
